Tested on: mutant form of α-Gal A expressed in HEK-293 cells
Experiment: HEK assay (GLP HEK / Migalastat Amenability Assay): α-Gal A activity in lysates of transiently transfected HEK-293 cells incubated with or without 10 μM migalastat
Assay type: cell-based, human
Settings: for Absolute increase (% WT) / Relative increase: 10 μM migalastat versus baseline; for Baseline α-Gal A activity (% WT): absence of migalastat; for Baseline α-Gal A activity (% WT) / 10 μM migalastat α-Gal A activity (% WT): percentage of baseline wild-type α-Gal A activity; for Baseline α-Gal A activity (% WT) / Baseline α-Gal A activity / 10 μM migalastat α-Gal A activity / 10 μM migalastat α-Gal A activity (% WT): mean ± SEM; for Baseline α-Gal A activity / 10 μM migalastat α-Gal A activity: lysates of HEK-293 cells transiently transfected with the mutant form; for Baseline α-Gal A activity: incubated 5 days in absence of migalastat; for 10 μM migalastat α-Gal A activity: incubated 5 days with 10 μM migalastat; for 10 μM migalastat α-Gal A activity (% WT): with 10 μM migalastat, 5 days
Summary of the method: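 Activity reported as 4-MU released (nmol/mg/hr), mean±SEM, from lysates of transiently transfected HEK-293 cells expressing mutant α-Gal A, cultured with or without 10 μM migalastat.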

Molecule | Absolute increase (% WT) | Relative increase | Baseline α-Gal A activity (% WT) | Baseline α-Gal A activity | 10 μM migalastat α-Gal A activity | 10 μM migalastat α-Gal A activity (% WT)
P362A (protein) MQLRNPELHLGCALALRFLALVSWDIPGARALDNGLARTPTMGWLHWERFMCNLDCQEEPDSCISEKLFMEMAELMVSEGWKDAGYEYLCIDDCWMAPQRDSEGRLQADPQRFPHGIRQLANYVHSKGLKLGIYADVGNKTCAGFPGSFGYYDIDAQTFADWGVDLLKFDGCYCDSLENLADGYKHMSLALNRTGRSIVYSCEWPLYMWPFQKPNYTEIRQYCNHWRNFADIDDSWKSIKSILDWTSFNQERIVDVAGPGGWNDPDMLVIGNFGLSWNQQVTQMALWAIMAAPLFMSNDLRHISPQAKALLQDKDVIAINQDPLGKQGYQLRQGDNFEVWERPLSGLAWAVAMINRQEIGGARSYTIAVASLGKGVACNPACFITQLLPVKRKLGFYEWTSRLRSHINPTGTVLLQLENTMQMSLKDLL | 40.1 % WT | 1.4 | 100.8 ± 9.5 % WT | 35322 ± 3087 nmol/mg/h | 49809 ± 2721 nmol/mg/h | 140.9 ± 8.5 % WT
S364P (protein) MQLRNPELHLGCALALRFLALVSWDIPGARALDNGLARTPTMGWLHWERFMCNLDCQEEPDSCISEKLFMEMAELMVSEGWKDAGYEYLCIDDCWMAPQRDSEGRLQADPQRFPHGIRQLANYVHSKGLKLGIYADVGNKTCAGFPGSFGYYDIDAQTFADWGVDLLKFDGCYCDSLENLADGYKHMSLALNRTGRSIVYSCEWPLYMWPFQKPNYTEIRQYCNHWRNFADIDDSWKSIKSILDWTSFNQERIVDVAGPGGWNDPDMLVIGNFGLSWNQQVTQMALWAIMAAPLFMSNDLRHISPQAKALLQDKDVIAINQDPLGKQGYQLRQGDNFEVWERPLSGLAWAVAMINRQEIGGPRPYTIAVASLGKGVACNPACFITQLLPVKRKLGFYEWTSRLRSHINPTGTVLLQLENTMQMSLKDLL | 63.1 % WT | 1.4 | 143.2 ± 13.7 % WT | 48193 ± 4573 nmol/mg/h | 66731 ± 4698 nmol/mg/h | 206.4 ± 20 % WT
R363S (protein) MQLRNPELHLGCALALRFLALVSWDIPGARALDNGLARTPTMGWLHWERFMCNLDCQEEPDSCISEKLFMEMAELMVSEGWKDAGYEYLCIDDCWMAPQRDSEGRLQADPQRFPHGIRQLANYVHSKGLKLGIYADVGNKTCAGFPGSFGYYDIDAQTFADWGVDLLKFDGCYCDSLENLADGYKHMSLALNRTGRSIVYSCEWPLYMWPFQKPNYTEIRQYCNHWRNFADIDDSWKSIKSILDWTSFNQERIVDVAGPGGWNDPDMLVIGNFGLSWNQQVTQMALWAIMAAPLFMSNDLRHISPQAKALLQDKDVIAINQDPLGKQGYQLRQGDNFEVWERPLSGLAWAVAMINRQEIGGPSSYTIAVASLGKGVACNPACFITQLLPVKRKLGFYEWTSRLRSHINPTGTVLLQLENTMQMSLKDLL | 86.6 % WT | 2.7 | 50.1 ± 5.9 % WT | 16400 ± 1695 nmol/mg/h | 44621 ± 3266 nmol/mg/h | 136.7 ± 12.4 % WT
P362R (protein) MQLRNPELHLGCALALRFLALVSWDIPGARALDNGLARTPTMGWLHWERFMCNLDCQEEPDSCISEKLFMEMAELMVSEGWKDAGYEYLCIDDCWMAPQRDSEGRLQADPQRFPHGIRQLANYVHSKGLKLGIYADVGNKTCAGFPGSFGYYDIDAQTFADWGVDLLKFDGCYCDSLENLADGYKHMSLALNRTGRSIVYSCEWPLYMWPFQKPNYTEIRQYCNHWRNFADIDDSWKSIKSILDWTSFNQERIVDVAGPGGWNDPDMLVIGNFGLSWNQQVTQMALWAIMAAPLFMSNDLRHISPQAKALLQDKDVIAINQDPLGKQGYQLRQGDNFEVWERPLSGLAWAVAMINRQEIGGRRSYTIAVASLGKGVACNPACFITQLLPVKRKLGFYEWTSRLRSHINPTGTVLLQLENTMQMSLKDLL | 23.9 % WT | 1.8 | 25 ± 3.1 % WT | 8745 ± 1176 nmol/mg/h | 15971 ± 1019 nmol/mg/h | 48.9 ± 4.1 % WT
P362S (protein) MQLRNPELHLGCALALRFLALVSWDIPGARALDNGLARTPTMGWLHWERFMCNLDCQEEPDSCISEKLFMEMAELMVSEGWKDAGYEYLCIDDCWMAPQRDSEGRLQADPQRFPHGIRQLANYVHSKGLKLGIYADVGNKTCAGFPGSFGYYDIDAQTFADWGVDLLKFDGCYCDSLENLADGYKHMSLALNRTGRSIVYSCEWPLYMWPFQKPNYTEIRQYCNHWRNFADIDDSWKSIKSILDWTSFNQERIVDVAGPGGWNDPDMLVIGNFGLSWNQQVTQMALWAIMAAPLFMSNDLRHISPQAKALLQDKDVIAINQDPLGKQGYQLRQGDNFEVWERPLSGLAWAVAMINRQEIGGSRSYTIAVASLGKGVACNPACFITQLLPVKRKLGFYEWTSRLRSHINPTGTVLLQLENTMQMSLKDLL | 53.8 % WT | 1.8 | 71.2 ± 7.7 % WT | 25234 ± 2794 nmol/mg/h | 45209 ± 4138 nmol/mg/h | 125 ± 9 % WT
R363G (protein) MQLRNPELHLGCALALRFLALVSWDIPGARALDNGLARTPTMGWLHWERFMCNLDCQEEPDSCISEKLFMEMAELMVSEGWKDAGYEYLCIDDCWMAPQRDSEGRLQADPQRFPHGIRQLANYVHSKGLKLGIYADVGNKTCAGFPGSFGYYDIDAQTFADWGVDLLKFDGCYCDSLENLADGYKHMSLALNRTGRSIVYSCEWPLYMWPFQKPNYTEIRQYCNHWRNFADIDDSWKSIKSILDWTSFNQERIVDVAGPGGWNDPDMLVIGNFGLSWNQQVTQMALWAIMAAPLFMSNDLRHISPQAKALLQDKDVIAINQDPLGKQGYQLRQGDNFEVWERPLSGLAWAVAMINRQEIGGPGSYTIAVASLGKGVACNPACFITQLLPVKRKLGFYEWTSRLRSHINPTGTVLLQLENTMQMSLKDLL | 72.6 % WT | 2.7 | 41.8 ± 5.1 % WT | 13990 ± 1613 nmol/mg/h | 37837 ± 2998 nmol/mg/h | 114.4 ± 10.7 % WT
S364C (protein) MQLRNPELHLGCALALRFLALVSWDIPGARALDNGLARTPTMGWLHWERFMCNLDCQEEPDSCISEKLFMEMAELMVSEGWKDAGYEYLCIDDCWMAPQRDSEGRLQADPQRFPHGIRQLANYVHSKGLKLGIYADVGNKTCAGFPGSFGYYDIDAQTFADWGVDLLKFDGCYCDSLENLADGYKHMSLALNRTGRSIVYSCEWPLYMWPFQKPNYTEIRQYCNHWRNFADIDDSWKSIKSILDWTSFNQERIVDVAGPGGWNDPDMLVIGNFGLSWNQQVTQMALWAIMAAPLFMSNDLRHISPQAKALLQDKDVIAINQDPLGKQGYQLRQGDNFEVWERPLSGLAWAVAMINRQEIGGPRCYTIAVASLGKGVACNPACFITQLLPVKRKLGFYEWTSRLRSHINPTGTVLLQLENTMQMSLKDLL | 40.0 % WT | 1.3 | 127 ± 10.6 % WT | 41263 ± 2389 nmol/mg/h | 53912 ± 3067 nmol/mg/h | 167 ± 14.8 % WT
R363L (protein) MQLRNPELHLGCALALRFLALVSWDIPGARALDNGLARTPTMGWLHWERFMCNLDCQEEPDSCISEKLFMEMAELMVSEGWKDAGYEYLCIDDCWMAPQRDSEGRLQADPQRFPHGIRQLANYVHSKGLKLGIYADVGNKTCAGFPGSFGYYDIDAQTFADWGVDLLKFDGCYCDSLENLADGYKHMSLALNRTGRSIVYSCEWPLYMWPFQKPNYTEIRQYCNHWRNFADIDDSWKSIKSILDWTSFNQERIVDVAGPGGWNDPDMLVIGNFGLSWNQQVTQMALWAIMAAPLFMSNDLRHISPQAKALLQDKDVIAINQDPLGKQGYQLRQGDNFEVWERPLSGLAWAVAMINRQEIGGPLSYTIAVASLGKGVACNPACFITQLLPVKRKLGFYEWTSRLRSHINPTGTVLLQLENTMQMSLKDLL | 62.2 % WT | 3.5 | 23.2 ± 1.9 % WT | 8123 ± 869 nmol/mg/h | 27997 ± 2485 nmol/mg/h | 85.4 ± 9.5 % WT
P362H (protein) MQLRNPELHLGCALALRFLALVSWDIPGARALDNGLARTPTMGWLHWERFMCNLDCQEEPDSCISEKLFMEMAELMVSEGWKDAGYEYLCIDDCWMAPQRDSEGRLQADPQRFPHGIRQLANYVHSKGLKLGIYADVGNKTCAGFPGSFGYYDIDAQTFADWGVDLLKFDGCYCDSLENLADGYKHMSLALNRTGRSIVYSCEWPLYMWPFQKPNYTEIRQYCNHWRNFADIDDSWKSIKSILDWTSFNQERIVDVAGPGGWNDPDMLVIGNFGLSWNQQVTQMALWAIMAAPLFMSNDLRHISPQAKALLQDKDVIAINQDPLGKQGYQLRQGDNFEVWERPLSGLAWAVAMINRQEIGGHRSYTIAVASLGKGVACNPACFITQLLPVKRKLGFYEWTSRLRSHINPTGTVLLQLENTMQMSLKDLL | 33.4 % WT | 3.9 | 11.2 ± 1 % WT | 3713 ± 377 nmol/mg/h | 14620 ± 531 nmol/mg/h | 44.6 ± 1.9 % WT

Reference: patent US11833164B2, “Methods of treating Fabry disease in patients having a mutation in the GLA gene” (Amicus Therapeutics, Inc., priority 2019, dated 2023)
